# Reference: patent publication US12325863B2, “MDA-7/IL-24 secretory variants and methods of use” (Virginia Commonwealth University, priority 2018, dated 2025)
# B1: Flt-3(sp)-M4(K122R): Flt-3(sp)-M4 with the corresponding lysine mutated to arginine; encoded by SEQ ID NO: 16 (protein)
# chain: MTVLAPAWSPTTYLLLLLLLSGSESCYLVHTLLEFYLKTVFRNYHNRTVEVRTLKSFSTLANNFVLIVSQLQPSQENEMFSIRDSAHRRFLLFRRAFKQLDVEAALTKALGEVDILLTWMQRFYKLGGSHHHHHH
# B2: Flt-3(sp)-M4: Flt-3 signal peptide linked to M4; encoded by SEQ ID NO: 14 (protein)
# chain: MTVLAPAWSPTTYLLLLLLLSGSESCYLVHTLLEFYLKTVFKNYHNRTVEVRTLKSFSTLANNFVLIVSQLQPSQENEMFSIRDSAHRRFLLFRRAFKQLDVEAALTKALGEVDILLTWMQKFYKLGGSHHHHHH
# B3: Insulin(sp)-MDA-7: human Insulin signal peptide linked to MDA-7/IL-24, Histidine-tag; encoded by SEQ ID NO: 6 (protein)
# chain: MALWMRLLPLLALLALWGPDPAAAHHHHHHENLYFQGMQEFHFGPCQVKGVVPQKLWEAFWAVKDTMQAQDNITSARLLQQEVLQNVSDAESCYLVHTLLEFYLKTVFKNYHNRTVEVRTLKSFSTLANNFVLIVSQLQPSQENEMFSIRDSAHRRFLLFRRAFKQLDVEAALTKALGEVDILLTWMQKFYKL
# B4: Insulin(sp)-MDA-7(K122R): insulin signal peptide fused to the K122R mutation variant of MDA-7/IL-24; encoded by SEQ ID NO: 11 (protein)
# chain: MALWMRLLPLLALLALWGPDPAAAHHHHHHENLYFQGMQEFHFGPCQVKGVVPQKLWEAFWAVKDTMQAQDNITSARLLQQEVLQNVSDAESCYLVHTLLEFYLKTVFRNYHNRTVEVRTLKSFSTLANNFVLIVSQLQPSQENEMFSIRDSAHRRFLLFRRAFKQLDVEAALTKALGEVDILLTWMQKFYKL
# B5: Insulin(sp)-M4: human Insulin signal peptide linked to M4; encoded by SEQ ID NO: 12 (protein)
# chain: MALWMRLLPLLALLALWGPDPAAAHHHHHHENLYFQGMESCYLVHTLLEFYLKTVFKNYHNRTVEVRTLKSFSTLANNFVLIVSQLQPSQENEMFSIRDSAHRRFLLFRRAFKQLDVEAALTKALGEVDILLTWMQKFYKL
# B6: MDA-7(sp)-MDA-7(K122R): MDA-7/IL-24 with lysine 122 converted to arginine; encoded by SEQ ID NO: 10 (protein, UniProt Q13007 1-206, looked up, variant K122R)
# chain: MNFQQRLQSLWTLARPFCPPLLATASQMQMVVLPCLGFTLLLWSQVSGAQGQEFHFGPCQVKGVVPQKLWEAFWAVKDTMQAQDNITSARLLQQEVLQNVSDAESCYLVHTLLEFYLKTVFRNYHNRTVEVRTLKSFSTLANNFVLIVSQLQPSQENEMFSIRDSAHRRFLLFRRAFKQLDVEAALTKALGEVDILLTWMQKFYKL
# modifications: full-length
# Tests used:
# [1] = tested on: RWPE-1 cells; test: MTT assay with Mcl-1 inhibitors, RWPE-1; type: cell-based, human; conditions: alone or in combination with MDA-7/IL-24, 48 hrs; FIG. 26C
# Experimental: Human (DU-145) CaP cells were treated with different targeted small molecules alone (FIG. 26A) or in combination with MDA-7/IL-24 (FIG. 26B), and after 48 hrs cell growth was measured by MTT. * indicates statistical significance vs. respective control group. Immortalized primary normal human prostate epithelial cells, RWPE-1, were treated with different combinations as indicated and MTT assays were performed at 48 hrs (FIG. 26C). Murine (RMI-BM) CaP cells were treated with different targeted small molecules alone (FIG. 26D) or in combination with MDA-7/IL-24 (FIG. 26E), and after 48 hrs. cell growth was measured by MTT.
# To test a multi-target approach for treatment of prostate cancer bone metastases, experiments were conducted to target Mcl-1 inhibition and investigate the effects on NG-mda-7/IL-24 efficacy. Using NMR (nuclear magnetic resonance) and computational biology, two Mcl-1 inhibitors were identified (Sabutoclax and BI-97D6) and their activity was validated in immune competent mice in combination with MDA-7/IL-24. In addition to these inhibitors, three commercially available targeted inhibitors were evaluated to determine potential synergistic effects with MDA-7/IL-24. The three inhibitors were UMI-77 (showing selectivity to Mcl-1 over other members of the Bcl-2 family), Marinopyrrole A (selective inhibitor of Mcl-1), and A-1210477. […]
# [2] = Sabutoclax and BI-97D6 in combination with MDA-7/IL-24; conditions: combined with MDA-7/IL-24; earlier observation referred to
# Experimental: To test a multi-target approach for treatment of prostate cancer bone metastases, experiments were conducted to target Mcl-1 inhibition and investigate the effects on NG-mda-7/IL-24 efficacy. […] In addition to these inhibitors, three commercially available targeted inhibitors were evaluated to determine potential synergistic effects with MDA-7/IL-24. […] Next, the therapeutic effect of MDA-7/IL-24 protein in combination with BI-97D6 was tested, in male athymic nude mice injected by the intracardiac route with human prostate cancer PC3-ML cells, resulting in bone metastases.
# [3] = tested on: human prostate cancer PC3-ML cells; test: PC3-ML intracardiac bone metastasis model in athymic nude mice; type: in vivo; conditions: single agent, versus control group
# Experimental: To test a multi-target approach for treatment of prostate cancer bone metastases, experiments were conducted to target Mcl-1 inhibition and investigate the effects on NG-mda-7/IL-24 efficacy. Using NMR (nuclear magnetic resonance) and computational biology, two Mcl-1 inhibitors were identified (Sabutoclax and BI-97D6) and their activity was validated in immune competent mice in combination with MDA-7/IL-24. In addition to these inhibitors, three commercially available targeted inhibitors were evaluated to determine potential synergistic effects with MDA-7/IL-24. The three inhibitors were UMI-77 (showing selectivity to Mcl-1 over other members of the Bcl-2 family), Marinopyrrole A (selective inhibitor of Mcl-1), and A-1210477. […] Mcl-1 expression was elevated by 1.7-fold in RM1-BM (RM1-BM cells selected for enhanced metastasis to bone) as compared to RM1 cells, indicating functional relevance of Mcl-1 in this metastatic process. […] This further supported the cancer-specificity of specific Mcl-1 inhibitors. Next, the therapeutic effect of MDA-7/IL-24 protein in combination with BI-97D6 was tested, in male athymic nude mice injected by the intracardiac route with human prostate cancer PC3-ML cells, resulting in bone metastases.
# [4] = tested on: DU-145 cells; test: MTT assay, DU-145 cells treated with conditioned media from transfected IM-PHFA cells; type: cell-based, human; conditions: compared to the control, FIG. 24
# Description: (§1) As noted in Example 1, improvements were obtained by mutating lysine at position 122 to arginine in full-length MDA-7/IL-24. The corresponding lysine was identified in M4 and mutated to arginine using site directed mutagenesis using forward primer (5′-[…]-3′) (SEQ ID NO: 19) and reverse primer (5′-[…]-3′) (SEQ ID NO: 20). Next, Flt-3(sp)-M4 and Flt-3(sp)-M4(K122R) were transfected into DU-145 cells. […] The conditioned media from transfected IM-PHFA (immortalized primary human fetal astrocytes) cells was added to DU-145 cells and MTT assays were performed (FIG. 24).
# [5] = tested on: DU-145 cells; test: M4 protein in lysate and conditioned media of transfected DU-145 cells; type: cell-based, human; conditions: K122R versus Flt-3(sp)-M4, FIG. 22
# Description: as §1
# [6] = tested on: HeLa cells; test: MDA-7/IL-24 protein in conditioned media and lysates of transfected HeLa cells (Western blotting); type: cell-based, human
# Experimental: (§2) SARI expression was determined at the transcript level in DU-145 cells after transfection with the indicated plasmids. […] The protein expression of MDA-7/IL-24 from the conditioned media (FIG. 5) and cell lysates (FIG. 6) of HeLa cells transfected with full length MDA-7 and Insulin(sp)-MDA-7 was assayed.
# (§3) Next, lysine 122 of MDA-7/IL-24 was converted to arginine by site directed mutagenesis using forward primer (5′-[…]-3′) (SEQ ID NO: 19) and reverse primer (5′-[…]-3′) (SEQ ID NO: 20). […] These enzymes are capable of reducing the tetrazolium dye MTT 3-(4,5-dimethylthiazol-2-yl)-2,5-diphenyltetrazolium bromide to its insoluble formazan, which has a purple color.
# [7] = tested on: HeLa cells; test: MTT assay following transfection of HeLa cells with constructs; type: cell-based, human; conditions: for proliferation (MTT): following transfection of HeLa cells, FIG. 14
# Description: as §3
# (§4) Having an MDA-7/IL-24 construct with enhanced protein secretion as well as enhanced protein stability may be very valuable as a potential gene therapeutic for cancer. Accordingly, lysine 122 was mutated to arginine in the Insulin(sp)-MDA-7 construct using site-directed mutagenesis. […] PARP cleavage and the expression of GRP-78 were also assessed in DU-145 cells following transfection with MDA-7(sp)-MDA-7 (wild type MDA-7 signal peptide), Insulin(sp)-MDA-7, MDA-7(sp)-MDA-7(K122R) and Insulin(sp)-MDA-7(K122R) (FIG. 13).
# (§5) PARP cleavage and the expression of GRP-78 were also evaluated in DU-145 cells following transfection with these four constructs, the results for which are shown in FIG. 20.
# [8] = tested on: SARI; test: SARI expression at the transcript level in transfected DU-145 cells; type: cell-based, human
# Experimental: as §2, §4, §5
# [9] = tested on: HeLa cells; test: MTT assay, HeLa cells treated with conditioned media from transfected HeLa cells; type: cell-based, human; conditions: vs control conditioned media, FIG. 8
# Description: as §3
# [10] = tested on: DU-145 cells; test: MTT assay, DU-145 cells treated with conditioned media from transfected HeLa cells; type: cell-based, human; conditions: vs control conditioned media, FIG. 9
# Description: as §3
# [11] = tested on: DU-145 cells; test: MDA-7/IL-24 transcript level (RTQ-PCR) in transfected DU-145 cells; type: cell-based, human; conditions: DU-145 cells transfected; FIG. 11
# [12] = tested on: DU-145 cells; test: ELISA of MDA-7/IL-24 protein in conditioned media of transfected DU-145 cells; type: cell-based, human; conditions: DU-145 cells transfected; FIG. 10
# Experimental: In an effort to enhance its anti-cancer activity, genetic engineering experiments were conducted to enhance MDA-7/IL-24 secretion. Five different signal peptides (abbreviated “sp”) were introduced, linked to MDA-7/IL-24, and assessed for protein secretion. The five signal peptides tested were endogenous human MDA-7/IL-24, human IL-2, human Insulin, Flt-3 and human BM40 (osteonectin/SPARC) signal peptides. The constructs were designated MDA-7(sp)-MDA-7 (wild type MDA-7 signal peptide), IL-2(sp)-MDA-7, Insulin(sp)-MDA-7, Flt-3(sp)-MDA-7 and BM40(sp)-MDA-7, respectively. Each of these constructs also included a Histidine-tag. These constructs were transfected into DU-145 cells (human prostate cancer cells).
# The presence of MDA-7/IL-24 in the conditioned media was assessed by enzyme-linked immunosorbent assay (ELISA) and results are shown in FIG. 2.
# as §4
# [13] = tested on: DU-145 cells; test: M4 expression in conditioned media of transfected DU-145 cells (ELISA); type: cell-based, human; conditions: compared to the other 3 signal peptides, FIG. 17
# Experimental: To determine if different sequence motifs could enhance the secretion of M4 over Flt-3(sp)-M4, three additional signal peptides linked to M4 were introduced and protein secretion was assessed. The four signal peptides tested were endogenous human MDA-7/IL-24, human IL-2, human Insulin, and Flt-3 signal peptides. The constructs were designated MDA-7(sp)-M4 (wildtype MDA-7/IL-24 secretory peptide), IL-2(sp)-M4, Insulin(sp)-M4, and Flt-3(sp)-M4, respectively, and a schematic illustration is shown in FIG. 16. Each of these constructs also included a Histidine-tag. These constructs were transfected into DU-145 cells and assessed for expression of M4 in the conditioned media (FIG. 17) and at the transcript level (FIG. 18). An MDA-7/IL-24 antibody and RT-Q-PCR primers able to detect M4 were used to assess M4 expression.
# as §5
molecule,measurement,setting,value
O=C(c1ccccc1O)c1[nH]c(Cl)c(Cl)c1-n1c(C(=O)c2ccccc2O)cc(Cl)c1Cl [Marinopyrrole A],anti-proliferative effects (MTT),[1],anti-proliferative effects
BI-97D6 [reference compound],antitumor synergy,[2],antitumor synergy
same,bone metastases,[3],statistically significant inhibition of bone metastases
B1,cell growth (MTT),[4],cell growth suppression
same,protein in cell lysates,[5],increase in protein
same,protein in the conditioned media,[5],increase in protein
B2,cell growth (MTT),[4],cell growth suppression
B3,MDA-7/IL-24 protein secretion,"[6]; HeLa cells, versus full length MDA-7, FIGS. 5, 6",dramatic increase in MDA-7/IL-24 protein secretion
same,proliferation (MTT),[7],decrease in proliferation
same,SARI expression at the transcript level,"[8]; DU-145 cells, five signal peptide MDA-7 constructs, FIG. 4",highest SARI expression
same,proliferation (MTT),[9],decrease in proliferation
same,proliferation (MTT),[10],decrease in proliferation
B4,proliferation (MTT),[7],decrease in proliferation
same,SARI induction at the transcript level,"[8]; compared to Insulin(sp)-MDA-7 or MDA-7 containing K122R, FIG. 12",highest SARI induction
same,MDA-7/IL-24 expression at the transcript level using RTQ-PCR,[11],enhanced MDA-7/IL-24 expression
same,MDA-7/IL-24 expression in the conditioned media using ELISA,[12],enhanced MDA-7/IL-24 expression
B5,growth (MTT),"[7]; M4 constructs, transfection of HeLa cells, FIG. 21",growth suppression
same,SARI expression,"[8]; DU-145 cells, four signal peptide M4 constructs, FIG. 19",highest SARI expression
same,M4 protein secretion,[13],enhanced M4 protein secretion to a greater extent
B6,protein in the conditioned media by Western blotting,"[6]; HeLa cells transfected, FIG. 5",increase in protein
same,protein in cell lysate by Western blotting,"[6]; HeLa cells transfected, FIG. 6",increase in protein
same,proliferation (MTT),[7],decrease in proliferation
same,proliferation (MTT),[9],decrease in proliferation
same,proliferation (MTT),[10],decrease in proliferation
